Molecular target: rat transferrin receptor (rat) (UniProt Q99376)
Test: cell-based or functional assay

Chain of UniProt Q99376 (Q99376 whole entry): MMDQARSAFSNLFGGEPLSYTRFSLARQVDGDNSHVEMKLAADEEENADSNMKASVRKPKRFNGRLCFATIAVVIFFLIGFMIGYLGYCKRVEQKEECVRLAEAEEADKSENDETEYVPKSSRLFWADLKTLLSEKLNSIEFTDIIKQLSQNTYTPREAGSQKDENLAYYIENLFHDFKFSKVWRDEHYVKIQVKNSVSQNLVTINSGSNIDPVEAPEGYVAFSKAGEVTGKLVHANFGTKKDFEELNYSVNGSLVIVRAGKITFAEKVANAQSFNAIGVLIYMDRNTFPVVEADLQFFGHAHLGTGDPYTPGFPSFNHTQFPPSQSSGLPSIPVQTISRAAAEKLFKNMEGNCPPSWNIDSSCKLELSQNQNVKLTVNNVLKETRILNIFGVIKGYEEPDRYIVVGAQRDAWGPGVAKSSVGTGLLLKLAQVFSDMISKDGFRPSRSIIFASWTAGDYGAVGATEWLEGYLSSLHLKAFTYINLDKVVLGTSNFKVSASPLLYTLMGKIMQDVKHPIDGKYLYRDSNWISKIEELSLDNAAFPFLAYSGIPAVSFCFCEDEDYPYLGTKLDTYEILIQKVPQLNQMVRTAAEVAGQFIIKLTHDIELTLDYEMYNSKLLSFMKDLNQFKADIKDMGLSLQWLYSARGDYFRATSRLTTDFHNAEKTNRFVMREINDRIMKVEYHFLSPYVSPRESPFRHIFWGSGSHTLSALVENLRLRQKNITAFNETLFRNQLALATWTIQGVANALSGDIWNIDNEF

Substance: OX-26, positive control antibody against the rat transferrin receptor (AbD Serotec, # MCA155G)
- percentage of RBE4 cells exhibiting multiple internalized vesicles per cell: 92%
- percentage of primary BMECs exhibiting multiple internalized vesicles per cell: 46%

From patent US20150196663A1
